# Source: patent US20240336900A1, “METHODS AND COMPOSITIONS RELATED TO MODIFIED METHYLTRANSFERASES AND ENGINEERED BIOSENSORS” (BOARD OF REGENTS, THE UNIVERSITY OF TEXAS SYSTEM, priority 2023, published 2024)
# Numbering of substitutions follows the chain as printed. Names and notes keep the numbering of the source.
# B1: 4NB1.2: RamR variant bearing two amino acid substitutions, K63T and L66M (protein)
# chain: MVARPKSEDKKQALLEAATQAIAQSGIAASTAVIARNAGVAEGTLFRYFATKDELINTLYLHLTQDMCQSMIMELDRSITDAKMMTRFIWNSYISWGLNHPARHRAIRQLAVSEKLTKETEQRADDMFPELRDLCHRSVLMVFMSDEYRAFGDGLFLALAETTMDFAARDPARAGEYIALGFEAMWRALTREEQ
# modifications: Description of sequence: Improved biosensor variant K63T, L66M
# B2: 4NB2.1: evolved RamR biosensor variant, K63T, L66M, C134D and S137G (protein)
# chain: B1 chain with C135D, S138G
# modifications: Description of sequence: Improved biosensor variant K63T, L66M, C134D, S137G
# B3: H17K: Nb4OMT variant with mutation H17K (protein)
# chain: MGASIDDYSLVHKNILKSEDLLKYILETSAYPREHEQLKGLREVTEKHEWSSALVPADEGLFLSMLLKLMNAKRTIEIGVYTGYSLLTTALALPEDGKITAIDVNKSYYEIGLPFIQKAGVEHKINFIESEALPVLDQMLEEMKEEDLYDYAFVDADKSNYANYHERLVKLVRIGGAILYDNTLWYGSVAYPEYPGLHPEEEVARLSFRNLNTFLAADPRVEISQVSIGDGVTICRRLY
# modifications: Description of sequence: Improved enzyme variant H17K
# B4: A53R: Nb4OMT variant with substitution A53R, predicted without docking (protein)
# chain: B3 chain with K17H, A53R
# B5: V203E: Nb4OMT variant with mutation V203E (protein)
# chain: B3 chain with K17H, V203E
# modifications: Description of sequence: Improved enzyme variant V203E
# B6: S159E: Nb4OMT variant with mutation S159E (protein)
# chain: B3 chain with K17H, S159E
# modifications: Description of sequence: Improved enzyme variant S159E
# B7: E36P/G40E/A53M mutant: Nb4OMT variant with mutations E36P, G40E and A53M (protein)
# chain: B3 chain with K17H, E36P, G40E, A53M
# B8: H17R: Nb4OMT variant with mutation H17R (protein)
# chain: B3 chain with K17R
# modifications: Description of sequence: Improved enzyme variant H17R Mutation
# B9: E36P-G40E: Nb4OMT variant with mutations E36P and G40E (protein)
# chain: B3 chain with K17H, E36P, G40E
# modifications: Description of sequence: Improved enzyme variant E36P-G40E
# Tests used:
# [1] = Sensitivity and selectivity of evolved RamR sensor variants; assay type: cell-based, Escherichia coli
# Protocol: Cell culture (20 μl) bearing the sensor library was seeded into 5 ml fresh LB containing appropriate antibiotics, 100 μg ml-1 zeocin (Thermo Fisher, R25001) and 100 uM of norbelladine (for round two) and grown at 37° C. for 7 h. Following incubation, 0.5 μl of culture was diluted into 1 ml LB medium, from which 100 μl was further diluted into 900 μl LB medium. Three hundred microliters of this mixture was then plated across three LB agar plates (100 μL per plate) containing carbenicillin, chloramphenicol and 4NB dissolved in DMSO. Plates were incubated overnight at 37° C. The following day, the brightest colonies were picked and grown overnight in 1 ml LB medium containing appropriate antibiotics in a 96-deep-well plate sealed with an AeraSeal film at 37° C. A glycerol stock of cells containing pSELIS-RamR and pReg-RamR encoding the template RamR variant was also inoculated into 5 ml LB for overnight growth.
# The following day, 20 μl of each culture was used to inoculate two separate wells in a new 96-deep-well plate containing 900 μl LB medium. Additionally, eight separate wells containing 1 ml LB medium were inoculated with 20 μl of the overnight culture expressing the parental RamR variant. After 2 h of growth at 37° C., the top half of the 96-well plate was induced with 100 μl LB medium containing 10 μl DMSO, whereas the bottom half of the plate was induced with 100 μl LB medium containing 4NB dissolved in 10 μl DMSO. The concentration of 4NB used for induction is typically the same concentration used in the LB agar plate for screening during that particular round of evolution. Cultures were grown for an additional 4 h at 37° C. and 250 r.p.m. and subsequently centrifuged (3,500 g, 4° C., 10 min). Supernatant was removed, and cell pellets were resuspended in 1 ml PBS. One hundred microliters of the cell resuspension for each condition was transferred to a 96-well microtiter plate, from which the fluorescence (excitation, 485 nm; emission, 509 nm) and absorbance (600 nm) were measured using the Tecan Infinite M1000 plate reader. Clones with the highest signal-to-noise ratio (generally the top 5-10% of the screened clones) were then sequenced and subcloned into a fresh pReg-RamR vector.
# For sensor variant validation, the subcloned pReg-RamR vectors expressing the sensor variants were transformed into DH10B cells expressing Pramr-GFP. […]
# Glycerol stocks (20% glycerol) of strains containing the plasmids of interest were inoculated into 1 ml LB medium and grown overnight at 37° C. […] The cell resuspension (100 μl) for each condition was transferred to a 96-well microtiter plate, from which the fluorescence (excitation, 485 nm; emission, 509 nm) and absorbance (600 nm) were measured using the Tecan Infinite M1000 plate reader.
# [2] = Biosensor-linked O-methyltransferase activity assay; assay type: cell-based, Escherichia coli; settings: single mutational designs; 25, 30, 37 °C; 100 uM, 1 mM norbelladine
# Protocol: Nb4OMT was expressed with the P150-RBS (riboJ) promoter-RBS on the pReg-RamR plasmid backbone (no regulator present). Cells were co-transformed with both the 40MT plasmid and the 4NB reporter plasmid and plated on an LB agar plate containing appropriate antibiotics. Three individual colonies from each transformation were picked into LB and grown overnight. Resulting cultures were diluted 50-fold into 1 ml LB medium containing the indicated concentration of norbelladine in a 96-deep-well plate and were grown at the indicated temperature for 24 h. Subsequently, the fluorescence of cultures was measured in the same manner as previously described in Dose-response measurement above.
# [3] = Steady state kinetics of purified Nb4OMT variants; assay type: biochemical
# Protocol: Reactions for kinetics measurements were performed in triplicate for all enzyme variants. For each variant 1.5 ml reactions containing 3.5 nM of enzyme, 500 μM SAM, 2 mM CaCl2), and 15.625, 31.25, 62.5, 125, 250, or 500 μM norbelladine in PBS pH 7.5 were incubated at 37° C. for 4 hours. Every hour a 200 μl aliquot of each reaction was quenched by pipetting it into a 1.5 ml microcentrifuge tube with 20 μl of 2M HCl. The concentration of 4′-O-Methylnorbelladine was then determined using HPLC as described.
# Kinetic data were fit in KinTek Explorer simulation and data fitting software v11 (Roy, 2018). The following minimal model was used as an input. Each line represents a step in the model and the forward reaction goes from left to right while the reverse reaction goes from right to left as written. • (1) E+S=ES • (2) ES=EP • (3) EP=E+P • (4) S=P2
# 3.5 nM enzyme and 15.625, 31.25, 62.5, 125, 250, and 500 M substrate. The output observable was defined as EP+P. Substrate oxidation was modeled in step (4) as irreversible with a best fit value from globally fitting data from all variants to derive k4=0.00547 min^−1.To get kout/Km and kcat: k−1, k−2, and k−3 were locked at 0 min-1 (irreversible reactions). k+3 was locked at 10,000 min-1 as to not limit the rate of turnover. k+1 and k+2 were used as variable parameters in the fitting. Under these conditions, k+2=kcat and k+1=kcat/Km. For estimates of 95% confidence intervals on kinetic parameters, confidence contour analysis was used with the FitSpace function in KinTek Explorer (Bhattacharya, 2015). Confidence contour plots are calculated by systematically varying a single rate constant and holding it fixed at a particular value while refitting the data, allowing other rate constants to float. The goodness of fit was scored by the resulting χ^2 value. The confidence interval is defined based on a threshold in χ^2 calculated from the F-distribution based on the number of data points and number of variable parameters to give the 95% confidence limits. For the data given in FIGS. 20A-20C, this threshold was 0.85 to estimate the upper and lower limits for each parameter. […] We then fit the data for these two variants to the model shown below, accounting for substrate inhibition.
# As before, k+1 was allowed to float in the fitting to give kcat/Km, and k−1 was locked at 0 min^−1, k+2 was allowed to float in the fitting to give kcat, and k−2 was locked at 0 min^−1. k+3 was locked at 10,000 min^−1, and k−3 was locked at 0 min^−1. k+4 and k+6 were locked at 100 μM^−1 min^−1, and k−4 and k−6 were allowed to float in the fitting as linked parameters. k+5 was linked to k+1 and k−5 was locked at 0 min^−1. k−7 was locked at 0 min^−1, and k+7 was locked at 0.00547 min^−1.
# [4] = Differential scanning fluorimetry; assay type: physicochemical
# Protocol: Purified Nb4OMT variants in the concentration of 5 μM were prepared in 96-well low-profile PCR plates (ABgene, Thermo Scientific). 10×SYPRO® Orange (Molecular Probes) was added into each well and mixed prior to measurement in an RT-PCR machine (LightCycler 480, Roche). The protein melting experiments were carried out with a continuous temperature acquisition mode using 10 acquisitions per 1° C. in each cycle from 20° C. to 95° C. The melting curves of the Nb4OMT variants were monophasic and Tm values were derived using Boltzmann equation.
molecule,measurement,setting,value
B1,selectivity for 4NB over norbelladine,[1],20 fold
B2,selectivity for 4NB over norbelladine,[1],over 80 fold
same,sensitivity relative to the HPLC method,[1],approximately 10 fold
same,limit of detection,[1]; 4NB,approximately 2.5 uM
B3,fluorescent signal relative to the wild-type enzyme,[2],above wild-type in at least one tested condition
B4,fluorescent signal relative to the wild-type enzyme,[2],reduced activity under all tested conditions
B5,fluorescent signal relative to the wild-type enzyme,[2],above wild-type in at least one tested condition
B6,fluorescent signal relative to the wild-type enzyme,[2],above wild-type in at least one tested condition
B7,kcat,"[3]; 3.5 nM enzyme, 500 μM SAM, 37° C., PBS pH 7.5",>2 s⁻¹
same,Km,[3]; calculated by dividing kcat by kcat/Km,< 83 µM
same,substrate inhibition,"[3]; steady state kinetic data, highest norbelladine concentration",affected by substrate inhibition
same,increase in Tm relative to the wild-type enzyme,[4],5.6 °C
same,Tm,"[4]; 5 μM protein, SYPRO Orange",58.4 °C
B8,fluorescent signal relative to the wild-type enzyme,[2],above wild-type in at least one tested condition
B9,fluorescent signal relative to the wild-type enzyme,[2],above wild-type in at least one tested condition
